Source: paper PMC4054823

Biological target: SERCA (UniProt P04191)
Experiment: time-resolved FRET in reconstituted lipid vesicles
Settings: reference: unphosphorylated labeled PLB; sites S16

phospholamban (PLB) (from UniProt P61015) PKA-phosphorylated, HPLC-purified labeled PLB (pPLB)
other: mole fraction of PLB bound to SERCA (xDA): weaker; reference 0.99 ± 0.01
